From patent US20250115669A1, “FGFR1/KLB Targeting Agonistic Antigen-Binding Proteins and Conjugates Thereof with GLP-1R Agonistic Peptides” (SANOFI, priority 2020, published 2025)

T1: human beta-Klotho (Homo sapiens, UniProt Q86Z14)
T1 sequence (Q86Z14 1-1044): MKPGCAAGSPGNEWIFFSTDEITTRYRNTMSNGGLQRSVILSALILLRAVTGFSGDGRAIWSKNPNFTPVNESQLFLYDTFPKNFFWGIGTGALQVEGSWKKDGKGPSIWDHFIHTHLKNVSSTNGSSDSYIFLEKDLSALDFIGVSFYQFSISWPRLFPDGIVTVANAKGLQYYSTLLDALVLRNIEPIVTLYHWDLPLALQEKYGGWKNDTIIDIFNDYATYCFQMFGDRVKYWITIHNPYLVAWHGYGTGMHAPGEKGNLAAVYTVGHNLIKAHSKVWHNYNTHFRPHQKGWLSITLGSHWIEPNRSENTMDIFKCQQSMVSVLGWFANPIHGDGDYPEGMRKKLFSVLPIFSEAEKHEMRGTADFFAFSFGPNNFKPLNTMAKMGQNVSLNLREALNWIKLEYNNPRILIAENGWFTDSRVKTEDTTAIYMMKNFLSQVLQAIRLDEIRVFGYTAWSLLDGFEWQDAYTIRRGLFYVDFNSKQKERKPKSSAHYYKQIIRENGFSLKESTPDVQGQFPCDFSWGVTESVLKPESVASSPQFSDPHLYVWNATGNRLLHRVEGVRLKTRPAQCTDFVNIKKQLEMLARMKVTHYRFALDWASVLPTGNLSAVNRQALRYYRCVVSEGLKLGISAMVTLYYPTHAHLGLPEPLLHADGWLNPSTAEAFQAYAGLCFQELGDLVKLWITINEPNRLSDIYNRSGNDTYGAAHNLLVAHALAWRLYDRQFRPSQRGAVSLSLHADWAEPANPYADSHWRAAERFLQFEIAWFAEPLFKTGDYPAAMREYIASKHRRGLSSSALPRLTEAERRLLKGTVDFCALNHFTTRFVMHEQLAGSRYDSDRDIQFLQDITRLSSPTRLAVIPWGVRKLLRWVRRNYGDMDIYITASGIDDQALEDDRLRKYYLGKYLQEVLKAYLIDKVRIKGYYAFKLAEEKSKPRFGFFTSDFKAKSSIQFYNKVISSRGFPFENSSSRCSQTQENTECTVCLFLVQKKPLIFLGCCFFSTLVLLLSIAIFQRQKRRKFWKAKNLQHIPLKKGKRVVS


biological target: T1, human beta-Klotho; assay: SPR off-rate screening of antibody mutants (human beta-Klotho captured by anti-His antibody); type: binding; conditions: mean, n=3
Description: Screening of antibody mutants for binding to human beta-Klotho was determined in a different SPR assay set up. Human beta-Klotho was affinity captured by an anti-His antibody (from His capture kit, GE Healthcare) that was immobilized to a series S CM5 chip (GE Healthcare) by amine reactive coupling as described above. The antibody samples were used as analytes at 50 nmol/L concentration. Association time was 240 sec and dissociation time was 300 sec. Chip surfaces were regenerated using the regeneration solution supplied with the His capture kit. The off-rates (kd) were determined using single exponential fitting in the Biacore 8K Evaluation Software version 1.1.1.7442 (GE Healthcare).

koff human KLB	Molecule
no binding	Ab0408: IgG4 PE; 16H7 VL (Y48del, D95T, W90F); 16H7 VH (M34V, H52W, I83T, D109E) (antibody) VH: QVTLKESGPVLVKPTETLTLTCTVSGFSLNNARVGVSWIRQPPGKALEWLAWIFSNDEKSYSTSLKSRLTISKDTSKSQVVLTMTNMDPVDTATYYCARSVVTGGYYYEGMDVWGQGTTVTVSS light: SYVLTQPPSVSVAPGQTARITCGGNNIGSESVHWYQQKPGQAPVLVVDDSDRPSGIPERFSGSNSGNTATLTISRVEAGDEADYYCQVFDGNSTHVVFGGGTKLTVLGQPKANPTVTLFPPSSEELQANKATLVCLISDFYPGAVTVAWKADGSPVKAGVETTKPSKQSNNKYAASSYLSLTPEQWKSHRSYSCQVTHEGSTVEKTVAPTECS
0.00175 s⁻¹	Ab0326: IgG4 PE; 16H7 VL (N25S, D49Y, D50E, D91E, N93S); 16H7 VH (M34V, I83T, D109E) (antibody) VH: QVTLKESGPVLVKPTETLTLTCTVSGFSLNNARVGVSWIRQPPGKALEWLAHIFSNDEKSYSTSLKSRLTISKDTSKSQVVLTMTNMDPVDTATYYCARSVVTGGYYYEGMDVWGQGTTVTVSS light: SYVLTQPPSVSVAPGQTARITCGGSNIGSESVHWYQQKPGQAPVLVVYYESDRPSGIPERFSGSNSGNTATLTISRVEAGDEADYYCQVWEGSSDHVVFGGGTKLTVLGQPKANPTVTLFPPSSEELQANKATLVCLISDFYPGAVTVAWKADGSPVKAGVETTKPSKQSNNKYAASSYLSLTPEQWKSHRSYSCQVTHEGSTVEKTVAPTECS
no binding	Ab0410: IgG4 PE; 16H7 VL (Y48del, D95S, W90Y); 16H7 VH (M34V, I83T, D109E) (antibody) VH: QVTLKESGPVLVKPTETLTLTCTVSGFSLNNARVGVSWIRQPPGKALEWLAHIFSNDEKSYSTSLKSRLTISKDTSKSQVVLTMTNMDPVDTATYYCARSVVTGGYYYEGMDVWGQGTTVTVSS light: SYVLTQPPSVSVAPGQTARITCGGNNIGSESVHWYQQKPGQAPVLVVDDSDRPSGIPERFSGSNSGNTATLTISRVEAGDEADYYCQVYDGNSSHVVFGGGTKLTVLGQPKANPTVTLFPPSSEELQANKATLVCLISDFYPGAVTVAWKADGSPVKAGVETTKPSKQSNNKYAASSYLSLTPEQWKSHRSYSCQVTHEGSTVEKTVAPTECS
invalid fit	Ab0329: IgG4 PE; 16H7 VL (N25S, D49Y, D50S, D91A, N93S); 16H7 VH (M34V, I83T, D109E) (antibody) VH: QVTLKESGPVLVKPTETLTLTCTVSGFSLNNARVGVSWIRQPPGKALEWLAHIFSNDEKSYSTSLKSRLTISKDTSKSQVVLTMTNMDPVDTATYYCARSVVTGGYYYEGMDVWGQGTTVTVSS light: SYVLTQPPSVSVAPGQTARITCGGSNIGSESVHWYQQKPGQAPVLVVYYSSDRPSGIPERFSGSNSGNTATLTISRVEAGDEADYYCQVWAGSSDHVVFGGGTKLTVLGQPKANPTVTLFPPSSEELQANKATLVCLISDFYPGAVTVAWKADGSPVKAGVETTKPSKQSNNKYAASSYLSLTPEQWKSHRSYSCQVTHEGSTVEKTVAPTECS
invalid fit	Ab0330: IgG4 PE; 16H7 VL (N25S, D49S, D50E, D91A, N93E); 16H7 VH (M34V, I83T, D109E) (antibody) VH: QVTLKESGPVLVKPTETLTLTCTVSGFSLNNARVGVSWIRQPPGKALEWLAHIFSNDEKSYSTSLKSRLTISKDTSKSQVVLTMTNMDPVDTATYYCARSVVTGGYYYEGMDVWGQGTTVTVSS light: SYVLTQPPSVSVAPGQTARITCGGSNIGSESVHWYQQKPGQAPVLVVYSESDRPSGIPERFSGSNSGNTATLTISRVEAGDEADYYCQVWAGESDHVVFGGGTKLTVLGQPKANPTVTLFPPSSEELQANKATLVCLISDFYPGAVTVAWKADGSPVKAGVETTKPSKQSNNKYAASSYLSLTPEQWKSHRSYSCQVTHEGSTVEKTVAPTECS
0.00107 s⁻¹	Ab0416: IgG4 PE; 16H7 VL (N25S, D49Y, D50E, D91E, N93E); 16H7 VH (M34V, I83T, D109E) (antibody) VH: QVTLKESGPVLVKPTETLTLTCTVSGFSLNNARVGVSWIRQPPGKALEWLAHIFSNDEKSYSTSLKSRLTISKDTSKSQVVLTMTNMDPVDTATYYCARSVVTGGYYYEGMDVWGQGTTVTVSS light: SYVLTQPPSVSVAPGQTARITCGGSNIGSESVHWYQQKPGQAPVLVVYYESDRPSGIPERFSGSNSGNTATLTISRVEAGDEADYYCQVWEGESDHVVFGGGTKLTVLGQPKANPTVTLFPPSSEELQANKATLVCLISDFYPGAVTVAWKADGSPVKAGVETTKPSKQSNNKYAASSYLSLTPEQWKSHRSYSCQVTHEGSTVEKTVAPTECS
invalid fit	Ab0328: IgG4 PE; 16H7 VL (N25S, D49Y, D50A, D91A, N93S); 16H7 VH (M34V, I83T, D109E) (antibody) VH: QVTLKESGPVLVKPTETLTLTCTVSGFSLNNARVGVSWIRQPPGKALEWLAHIFSNDEKSYSTSLKSRLTISKDTSKSQVVLTMTNMDPVDTATYYCARSVVTGGYYYEGMDVWGQGTTVTVSS light: SYVLTQPPSVSVAPGQTARITCGGSNIGSESVHWYQQKPGQAPVLVVYYASDRPSGIPERFSGSNSGNTATLTISRVEAGDEADYYCQVWAGSSDHVVFGGGTKLTVLGQPKANPTVTLFPPSSEELQANKATLVCLISDFYPGAVTVAWKADGSPVKAGVETTKPSKQSNNKYAASSYLSLTPEQWKSHRSYSCQVTHEGSTVEKTVAPTECS
0.0003459 s⁻¹	Ab0327: IgG4 PE; 16H7 VL (N25S, D49Y, D50Y, D91E, N93E); 16H7 VH (M34V, I83T, D109E) (antibody) VH: QVTLKESGPVLVKPTETLTLTCTVSGFSLNNARVGVSWIRQPPGKALEWLAHIFSNDEKSYSTSLKSRLTISKDTSKSQVVLTMTNMDPVDTATYYCARSVVTGGYYYEGMDVWGQGTTVTVSS light: SYVLTQPPSVSVAPGQTARITCGGSNIGSESVHWYQQKPGQAPVLVVYYYSDRPSGIPERFSGSNSGNTATLTISRVEAGDEADYYCQVWEGESDHVVFGGGTKLTVLGQPKANPTVTLFPPSSEELQANKATLVCLISDFYPGAVTVAWKADGSPVKAGVETTKPSKQSNNKYAASSYLSLTPEQWKSHRSYSCQVTHEGSTVEKTVAPTECS
0.0003027 s⁻¹	Ab0417: IgG4 PE; 16H7 VL (N25S, D49Y, D50E, D91H, N93E); 16H7 VH (M34V, I83T, D109E) (antibody) VH: QVTLKESGPVLVKPTETLTLTCTVSGFSLNNARVGVSWIRQPPGKALEWLAHIFSNDEKSYSTSLKSRLTISKDTSKSQVVLTMTNMDPVDTATYYCARSVVTGGYYYEGMDVWGQGTTVTVSS light: SYVLTQPPSVSVAPGQTARITCGGSNIGSESVHWYQQKPGQAPVLVVYYESDRPSGIPERFSGSNSGNTATLTISRVEAGDEADYYCQVWHGESDHVVFGGGTKLTVLGQPKANPTVTLFPPSSEELQANKATLVCLISDFYPGAVTVAWKADGSPVKAGVETTKPSKQSNNKYAASSYLSLTPEQWKSHRSYSCQVTHEGSTVEKTVAPTECS
